Patent publication US20210371518A1 (University of Texas, published 2021)

How the values were obtained:
[1] = biological target: T1, human LILRB4 extracellular domain (ECD) recombinant protein (human, UniProt Q8NHJ6 22-259); test: ELISA, coated LILRB4 ECD
T1 construct: extracellular domain; also called LILRB4 ECD; LILRB4-ECD
Description: FIG. 22 illustrates the determination of exemplary LILRB4 monoclonal antibody (mAbs) binding to human LILRB4 ECD using a concentration titration (0-10 μg/ml) by ELISA. X axis indicates the antibody concentrations and Y-axis is binding signals in OD (450 nm). LILRB4 ECD recombinant protein was coated on high absorption 96-well plates. Serial diluted (3-fold) LILRB4 mAb was added to the coated/blocked and detected using goat anti-rabbit IgG F(ab)₂-conjugated HRP as secondary antibody. The titration curves were fitted using 4-parameter fitting curve using the GraphPad software for EC50 estimation.

[2] = biological target: T1, human LILRB4 extracellular domain (ECD) …; test: Octet BLI, antibody on protein A sensor, recombinant human LILRB4 in solution
Description: FIG. 26 illustrates the kinetic binding measurements (sensor-grams) for exemplary LILRB4 antibodies determined using Octet. Antibody at 30 μg/mL was loaded to the proteins A sensor for 4 min. Following a short baseline in kinetics buffer, the loaded sensors were exposed to a series of recombinant human LILRB4 concentrations (0.1-200 nM) and background subtraction was used to correct for sensor drifting. All experiments were performed with shaking at 1,000 rpm. Background wavelength shifts were measured from reference sensors that were loaded only with antibody. ForteBio's data analysis software was used to fit the data to a 1:1 binding model to extract an association rate and dissociation rate. The KD was calculated by the ratio koff/kon using ForteBio's data analysis software 7.0.

[3] = biological target: T1, human LILRB4 extracellular domain (ECD) …; test: ELISA, LILRB4 recombinant protein coated, anti-human IgG F(ab)2-HRP
[4] = biological target: T2, human LILRB4 D1 recombinant protein (human, UniProt Q8NHJ6 24-119, limits assumed); test: ELISA, LILRB4 D1 recombinant protein coated, anti-rabbit IgG F(ab)2-HRP
T2 construct: domain: D1 domain; also called LILRB4 D1 domain (D1); Ig domain-1
T2 sequence (Q8NHJ6 24-119 limits assumed): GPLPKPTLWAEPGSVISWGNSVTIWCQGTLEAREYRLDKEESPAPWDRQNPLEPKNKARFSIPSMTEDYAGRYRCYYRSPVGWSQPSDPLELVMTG
Description: FIGS. 23A-23B. FIG. 23A is a schematic of the LILRB4 extracellular domain (ECD). […] FIG. 23B illustrates the determination of exemplary LILRB4 mAbs binding to Ig domain-1 (D1 domain) of human LILRB4. X axis indicates the antibody concentrations and Y-axis is binding signals in OD (450 nm). LILRB4 D1 recombinant protein was coated on high absorption 96-well plates. Serial diluted (3-fold) LILRB4 mAb was added to the coated/blocked plates and detected using goat anti-rabbit IgG F(ab)₂-conjugated HRP as secondary antibody.

EC50 [1]	Kd [2]	EC50 (read off the curve) [3]	EC50 (read off the curve) [4]	Binder
1.02 nM	0.344 nM	–	–	B4-86 (antibody, V domains shown, Rabbit monoclonal antibody) VH: EQSVESGGDLVKPEGSLTLTCTVSGFSFSSSYWICWVRQAPGKGLEWIGCIGTGSGSTYYGSWAKGRFTISKTSSTTVTLQMTSLTAADTATYFCVRGAGYSSYRLWGPGTLVTISS VL: ELDMTQTPASVSEPVGGTVTIKCQASESVSNWLAWYQQKPGQRPKLLIYGASTLESGVPSRFSGSGSGTEFTLTISNLECADAATYYCQQGYDWDNIDNAFGGGTEVVVK
–	–	~0.03 µg/mL	–	h193 (antibody, V domains shown) VH: EVQLVESGGGLVQPGGSLRLSCAASGFSLSSSYWISWVRQAPGKGLEWIGSIDSGSVGITYYATWVKGRFTISRDNSKNTLYLQMNSLRAEDTAVYYCARHGDNWALDLWGQGTLVTVSS VL: DLVMTQSPSTLSASVGDRVTITCQASQSINSWLAWYQQKPGKPPKLLIYKASTLASGVSSRFSGSGSGTEFTLTISSLQPDDVATYYCQHGYIRGDLDNVFGGGTKVEIKR
1.01 nM	0.0233 nM	–	–	B4-49 (antibody, V domains shown, Rabbit monoclonal antibody) VH: QSLEESGGDLVKPGASLTLTCTASGFDFSSSGWICWVRQAPGKGLELIACIYSGRSGSTYYASWAKGRVTISKTSSTTVTLQMTSLTAADTATYFCARALYVDYVDYDYIDLWGPGTLVTVSS VL: ELDLTQTPASVEAAVGGTVTIKCQASQSTGIRLAWYQQKPGQPPKLLMYATSNLASGVSSRFKGSGSGTEFTLTISDLECADAATYYCQYSYYGSSYVFDFGGGTEVEIK
2.58 nM	0.82 nM	–	–	B4-116-1 (antibody, V domains shown, Rabbit monoclonal antibody) VH: EQSVEESGGDLVKPGASLTLTCAASGFSFSSTYCMCWVRQAPGKGLEWIACIHGVSTNNRWYASWPKGRFTISKTSSTTVTLQMTSLTAADTATYFCARSDTDYEWGLSLWGPGTLVTISS VL: ELDLTQTPASVSEPVGGTVTIKCQASESIGSRLAWYQQKPGQRPKLLIYKASTLASGVPSRFSGSGSGTEFTLTVSDLECADVAAYYCQCAGQSSTWAFGGGTEVEIK
1.7 nM	0.495 nM	–	–	B4-116-2 (antibody, V domains shown, Rabbit monoclonal antibody) VH: EQSVEESGGDLVKPGASLTLTCAASGFSFSSTYCMCWVRQAPGKGLEWIACIHGVSTNNRWYASWPKGRFTISKTSSTTVTLQMTSLTAADTATYFCARSDTDYEWGLSLWGPGTLVTISS VL: ELVMTQTPASVEAVVGGTVTIKCQASESIGSRLAWYQQKPGQRPKLLIYKASTLASGVPSRFSGSGSGTEFTLTVSDLECADVAAYYCQCAGQSSTWAFGGGTEVVVK
2.54 nM	0.238 nM	–	~0.2 µg/mL	B4-87 (antibody, V domains shown, Rabbit monoclonal antibody) VH: QSVKESGGDLVKPGASLTLTCTASGFSFISTYWICWVRQAPGKGLELIACIYTGGSGSTYYASWAKGRFTISKTSSTTVTLQLNSLTAADTATYFCARALYVDYVDYDYIDLWGPGTLVTVSS VL: ELDLTQTPASVEAAVGGTVTIKCQASENIGSRLAWYQQKPGQPPKLLIYAASNLASGVSSRFKGSRSGTQFTLTISDLECADAAIYYCQCSYYGSTYVFGFGGGTEVEIK
0.29 nM	3.73 nM	–	–	B4-72-2 (antibody, V domains shown, Rabbit monoclonal antibody) VH: EQSVEESGGRLVTPGTPLTLTCTASGFSLSSYYMSWVRQAPGRGLEYIGVINTGGSAVYATWTKGRFTISRTSTTVDLKMTGLTTEDTATYFCARGWSRGDLWGQGTLVTISS VL: ELDMTQTPSPVSAAVGGTVTIKCQSSQNVYDDDTLSWYQQKPGQPPKLLIYDASKLASGVPDRFSGSGSGTQFTLTISGVQCDDAATYYCLGVFHDGINNAFGGGTEVEIK
0.99 nM	–	–	–	B4-15-1 (antibody, V domains shown, Rabbit monoclonal antibody against human LILRB4 ECD) VH: SGGLEESGGRLVTPGTPLTLTCTASGFTINSAHMSWVRQAPGKGLEWIGFSTTGGPSYYANWAKGRFTISRTSTTVDLEITSPTIEDTATYFCARDGPGNNIDMDLWGQGTLVTITS VL: ELDLTQTPASVSEPVGGTVTIKCQASQNRGGSIAWYQQKPGQPPKLLIYSASTLASGVPSRFSGSGYGTEFTLTISGVQCADAGTYYCQSTIYSISDIGAFGGGTEVVVK
